Paper PMC4414141, “The function of cux1 in oxidative dna damage repair is needed to prevent premature senescence of mouse embryo fibroblasts”

Tests used:
Conditions in all cases: protein: recombinant; tags: N-terminal His; label: 5'-32P on top strand
[1] = target: T1, CUX1 CR3HD (UniProt P39880 1117-1303); test: EMSA; complex co-migrates with that of OGG1; EMSA: 50 nM bacterially purified protein, 60 ng poly(dI-dC); buffer, salt, pH and temperature by reference to earlier work (not in material)
T1 sequence: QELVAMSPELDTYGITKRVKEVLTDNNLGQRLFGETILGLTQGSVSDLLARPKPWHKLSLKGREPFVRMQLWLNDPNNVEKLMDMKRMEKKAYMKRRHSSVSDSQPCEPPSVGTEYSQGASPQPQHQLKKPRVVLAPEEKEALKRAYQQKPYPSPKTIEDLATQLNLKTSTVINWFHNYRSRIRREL

[2] = target: T2, CUX1 CR2CR3HD (UniProt P39880 934-1303); test: EMSA; EMSA: 50 nM bacterially purified protein, 60 ng poly(dI-dC); buffer, salt, pH and temperature by reference to earlier work (not in material)
T2 sequence: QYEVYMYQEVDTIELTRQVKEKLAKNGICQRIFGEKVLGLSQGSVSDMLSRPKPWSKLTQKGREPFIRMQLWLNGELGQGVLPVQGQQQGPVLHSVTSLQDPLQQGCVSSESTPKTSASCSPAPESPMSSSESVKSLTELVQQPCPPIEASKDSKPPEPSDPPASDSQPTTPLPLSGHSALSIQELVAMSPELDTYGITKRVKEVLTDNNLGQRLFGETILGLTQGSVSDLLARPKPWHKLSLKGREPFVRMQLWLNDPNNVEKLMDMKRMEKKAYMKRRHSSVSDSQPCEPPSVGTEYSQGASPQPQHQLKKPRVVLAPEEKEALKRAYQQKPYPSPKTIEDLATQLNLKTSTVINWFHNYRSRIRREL

[3] = target: T3, CUX1 CR1CR2 (UniProt P39880 542-1021); test: as above
T3 sequence: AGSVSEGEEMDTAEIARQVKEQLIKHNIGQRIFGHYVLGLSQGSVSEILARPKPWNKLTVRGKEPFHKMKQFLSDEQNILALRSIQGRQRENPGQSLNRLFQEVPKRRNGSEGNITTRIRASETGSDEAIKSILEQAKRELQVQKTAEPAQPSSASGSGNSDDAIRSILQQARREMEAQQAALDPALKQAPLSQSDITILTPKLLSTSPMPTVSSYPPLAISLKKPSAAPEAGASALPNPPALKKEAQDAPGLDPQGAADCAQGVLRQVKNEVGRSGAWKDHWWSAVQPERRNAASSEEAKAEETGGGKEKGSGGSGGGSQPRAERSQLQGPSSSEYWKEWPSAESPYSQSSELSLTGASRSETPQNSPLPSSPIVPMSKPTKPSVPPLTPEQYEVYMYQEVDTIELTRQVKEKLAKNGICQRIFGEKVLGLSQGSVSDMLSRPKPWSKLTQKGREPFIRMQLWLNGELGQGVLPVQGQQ

Measured: binding result

B1: Probe A, 8-oxoG (dsDNA)
DNA 1: CCGGTGCATGACACTGTGACCTATCCTCAGCG
DNA 2: CGCTGAGGATAGGTCACAGTGTCATGCACCGG
modifications: 8-oxoG at position X of top strand
binds: all assays above
